The values below are quoted from earlier work in PMC13507575.

The data set deals with IL-1β (Homo sapiens) (UniProt P01584).

Consider canakinumab, for which the Kd was 4.1 nM.

Usually Kd stands for a measure of binding affinity in units of concentration.
